The labels stand for the following.
B1: glmS ribozyme (parent)
chain: AUAAAAGCGCCAGAACUACAGAAAUGUAGUUGACGAGGAGGAGGUUUAUCGAAUUUUCGGCGGAUGCCUCCAAA

± gives the standard error. Variants at the floor of the assay were thinned out.

In one data set the parent is B1. As to the kind of experiment: self-cleavage kobs at 2500 uM GlcN6P; higher = faster cleavage; RNA array. The note with it: with glucosamine-6-phosphate. The essentials: (§1)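 Barcoded glmS ribozyme variants on sequenced MiSeq chips were transcribed in situ by E. coli RNA polymerase and tracked through a hybridised Cy3 probe at 37 °C. Glucosamine-6-phosphate (40 μM to 10 mM) in HEPES/KCl/Mg(OAc)2 buffer was flowed in, and tiles were imaged over ~14 h. Signals were normalised to baseline and to non-cleaving reference variants; per-tile medians were fit to one- or two-exponential decays to give kobs. kcat and KM came from weighted Michaelis–Menten fits across concentrations.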
For the variant AUAAAAGCGCAGGAACUACAGAAAUGUAGUUGACGAGGAGGAGUUUUAUCGAAUUUUCGGCGGAUGCCUCAAAA [C11A A12G G44U C71A], the “self-cleavage kobs at 2500 uM GlcN6P” value is less than 1e-05 s⁻¹. The same measure, in the same setting: then AUAAAAGCGCCAGAUUUACAGAAAUGUAGUUGACGAGGAGGAGGUUUAUCGAAUUUUGGGCGGAUGCCUUCAAA [A15U C16U C58G C70U], with 7.87e-05 ± 2.1e-05 s⁻¹; and AUAAAAGCGCCGGAACUACAGAAAUGUAGUUGACGAGGAGGAGGGUUAUAGAAUUUGCGGCGGAUGCCUCCAAA [A12G U45G C50A U57G], with less than 1e-05 s⁻¹. Same read-out and setting: to AUAAAAGCGCCAGAAAUACAGAAAUGUACUUGACGAGGAGGAGGCUUAUCGAAUUUUCGGCGGAUGCCUCCAAA [C16A G29C U45C] belongs 0.000155 ± 3.5e-05 s⁻¹; to AUAAAAGCGCCAGAACUACAGAAAUGUAGUUGACGAGUAGUAGGUUUAUCGAAUUUUCCGCGGAAGCCUCCAAA [G38U G41U G59C U65A], less than 1e-05 s⁻¹; to AUAAAAGCGCCAGAACUACAGAAAUGUAGUUGACGAGGACGAGGUUUAUCGAAGUUUCGGCGGAUGCCUUCAAA [G40C U54G C70U], 0.000933 ± 0.00021 s⁻¹. On the same count and under the same terms, then AUAAAAGCGCCAGAACUACAGAAAUGUAGUUGACGAGGAGCAGGUUUCUCGAAUUUUCGGCGGGUGCCUCCAAA [G41C A48C A64G], with less than 1e-05 s⁻¹. For the variant AUAAAAGCGACAGACCUACAGAAAUGUAGUUGACGAGGAGGAGGUAUAUCGAAUUUUCGGUGGACGCCUCCAAA [C10A A15C U46A C61U U65C], the “self-cleavage kobs at 2500 uM GlcN6P” value was less than 1e-05 s⁻¹. On the same count and under the same terms, to AUAAAAGCGCCAGAACUACAGAACUUUAGUUGACGAGGAUGAGGUUUAUCGAAUUUUCGGCGGAUGCCUCCAAA [A24C G26U G40U] belongs 0.00202 ± 0.00051 s⁻¹; to AUAAAAGCGCCAGAACUACAGAAAUGUAGUUGACGAGGAGGAGGAUGAUCUAAUUUUCGGCGGGGGCCUCCAAA [U45A U47G G51U A64G U65G], less than 1e-05 s⁻¹; to AUAAAAGCGCCAGAACUACAGAAAUGUAGUCGACGACGAGGAGGUUUGGCGAACUUUCGGCGGAUGCCUCAAAA [U31C G37C A48G U49G U54C C71A], less than 1e-05 s⁻¹. On the same count and under the same terms, then AUAAAAGCGCCAGAACUACAGAAAUGUAGUUGACGAGGAGGAGGUUUCUCGAAUCUUCGGCGUAUGCCUCCAAA [A48C U55C G63U], with less than 1e-05 s⁻¹; and AUAAAAGCGCCAGAACUACAGAAAUGUAGUUGACGAGGAGGAGGUUAAUAGAAUUUUCUGCGGAUCCCUCCAAA [U47A C50A G59U G66C], with less than 1e-05 s⁻¹. The same measure, in the same setting: to AUAAAAGCGCCAGGACUACAGAAAUGUAGUUGAAGAGGAGGAGGUUUAUCGAAUGUUCGGCGGAUGCCUACAAA [A14G C34A U55G C70A] belongs less than 1e-05 s⁻¹; to AUAAAAGCGCCAGAACUACAGAAAUGUAGUUUACGAGGAGGAGGUUUAUCGAAUGUUCGGCGGAUGCCUUCAAA [G32U U55G C70U], 0.000141 ± 5e-05 s⁻¹. Regarding AUAAAGGCGCCAGCACUACAGAAAUGUAGUUGACGAGGAGGAGGUUUAUCGAGUUUUCGGCGGAUGCCUCCAAA [A6G A14C A53G], the “self-cleavage kobs at 2500 uM GlcN6P” value came out at 6.89e-05 ± 1.6e-05 s⁻¹. Still for that read-out and setting: then AUAAAAGCGCCAGAACUACAGAAAUGUAGUUGACUAGGAGAAGGUUUAUCGUAUUUUCGGCGGAUGCCUCUAAA [G35U G41A A52U C71U], with less than 1e-05 s⁻¹. As to AUAAAAGCGACAGAACUACAGAAAUGUAGUUGACGAGGAGCAGGUUUAUGGACUUUUCGGCGGAUGCCUCCAAA [C10A G41C C50G A53C], the “self-cleavage kobs at 2500 uM GlcN6P” value is less than 1e-05 s⁻¹. The same measure, in the same setting: then AUAAAAUCGCCAGAACUACAGAAAUGUAGUUGACGAGUAGGAGGUUUAUCGAAUUUUCGGCGGAUUCCUCCAAA [G7U G38U G66U], with less than 1e-05 s⁻¹; and AUAAAAGCGGCAGAACUACAGAAAUGUAGUUGAGGAGGAGGAGGUUUCUCGAAUUUUCGGCGGAUGCCUCCAAA [C10G C34G A48C], with less than 1e-05 s⁻¹; and AUAAAAGCGCCAGAACUACAGAAAUGUAGUUGACUAGGAGGAGGUUUAUCGAAUUUUGGGCGGUUGCCUCCAAA [G35U C58G A64U], with less than 1e-05 s⁻¹.

With AUAAAAGCGCCAGAACUACAGAAAUGUAGUUGACGAGGUGGAGGUUUAUCGAAUUUUCGGCGGACGCCUGCAAA [A39U U65C C70G], the “self-cleavage kobs at 2500 uM GlcN6P” value was 0.000144 ± 3.7e-05 s⁻¹. Same read-out and setting: to AUAAACGCGCCAUAACUACAGAAAUGUAGUUGUCGAGGAGGAGGUUUAUCGCAUUUUCGGCGCAUGCCUCCAAA [A6C G13U A33U A52C G63C] belongs less than 1e-05 s⁻¹; to AUAAAAGCGCCAGAACUACAGAAAUGUAGAUGACGAAGAGGAGGUUUAUCGAAUUUUCCGCGGAUGCCUCCAAA [U30A G37A G59C], less than 1e-05 s⁻¹; to AUAAAACCGUCACAACUACAGAAAUGUAGUUGACGAGGAGGAGGUUUAUCGAAUUUUCGGCGGAUUCCUCCAAA [G7C C10U G13C G66U], less than 1e-05 s⁻¹. Same read-out and setting: to AUAAAAGAGCCAGAACUACAGAAAUGUAGUUGACGAGGAGGAGGGUUAUCGAAGUUUCGGCGGAUACCUCCAAA [C8A U45G U54G G66A] belongs less than 1e-05 s⁻¹; to AUAAAAGAGCCAGAACUACAGAAAUGUAGUUGACGAGGAGGAGGUUUCACGAAUUUUCGGCGGAUGCCUCCAAA [C8A A48C U49A], less than 1e-05 s⁻¹; to AUAAAAGCGCCAGAACUACAGAAAUGUAGUUGACGCGGAGGAGGUUUAUCGAAUUUUCGGGGUAUGCAUCCAAA [A36C C61G G63U C68A], 0.000112 ± 3.9e-05 s⁻¹.

Turning to AUAAAAACGCCAGAACUACAGAAAUGUAGUUGACGAGGAGGAGGUUUGUCGAAUUUUCGGCGGAUGCCUUCAAA [G7A A48G C70U], the “self-cleavage kobs at 2500 uM GlcN6P” value is less than 1e-05 s⁻¹. Same read-out and setting: then AUAAAAGCGCCAGAGCUACAGAAAUGUAGUUCACGAGGAGGAGGUUUAUCGAAUUUUCGGCGGAUGCGUCCAAA [A15G G32C C68G], with less than 1e-05 s⁻¹. The same measure, in the same setting: then AUAAAAGCGCAAGAACUACAGAAAUGUAGUUGACGACUAGGAGGUUUAUCGAAUUUUCGGCGGAUGCCUCCAAA [C11A G37C G38U], with less than 1e-05 s⁻¹; and AUAAAACCGCCAAAACUACAGAAAUGUAGUUGACGAGGAGGAGGUUUAUCGUAUUUUCGGCGGAUCCCUCCAAA [G7C G13A A52U G66C], with less than 1e-05 s⁻¹; and AUAAAAGCGCCAGACCUACAGAAAUGUAGUUGACGAGGAGGAAUUUUAUCGAAUUUUCUGCGGAUGCCUCCAAA [A15C G43A G44U G59U], with less than 1e-05 s⁻¹. The same measure, in the same setting: then AUAAAAGCGCUAGAACUACAGAAAUGUAGUUGACGAGGAGGAGGUUUAACGGAUUUUCGGCGGAUGCCUCCAAA [C11U U49A A52G], with less than 1e-05 s⁻¹; and AUAAAAGUGCCAGAACUACAGAAAUGUAUUUGACGUGGAGGAGGUUUAUCGAAUUUUCGGCGGAUGCCUCCAAA [C8U G29U A36U], with less than 1e-05 s⁻¹.

The next data set covers variants of B1. As to the kind of experiment: self-cleavage kobs at 10000 uM GlcN6P; higher = faster cleavage; RNA array. The settings on record: with glucosamine-6-phosphate. The essentials: as §1
AUAAAAGCGCCGGAACUACAGAAAUGUAGUUGACGAGGAGGAGGGUUAUAGAAUUUGCGGCGGAUGCCUCCAAA [A12G U45G C50A U57G]: the “self-cleavage kobs at 10000 uM GlcN6P” value is less than 1e-05 s⁻¹. Still for that read-out and setting: then AUAAAAGCGCCAGAACUACAGAACUUUAGUUGACGAGGAUGAGGUUUAUCGAAUUUUCGGCGGAUGCCUCCAAA [A24C G26U G40U], with 0.00158 ± 0.00035 s⁻¹.

The values above are taken from the supplement of paper PMC7125110.
